# Reference: PMC9634608, “Multi-crystal native-SAD phasing at 5 keV with a helium environment” (IUCrJ, 2022)
# Target: the molecule itself
# Experiment: crystal structure; native-SAD at 5 keV with a helium path, 18 microcrystals, space group R3, 2.6 Å; crystals grown by sitting drop at 4°C in 0.1 M HEPES pH 7.8, 1 mM ZnSO4, 27–29% PEG 400, protein in β-OG
protein,measurement,value
"TehA (natural protein, TehA, a bacterial homolog of the plant nitrate/chloride channel SLAC1; construct as described by Chen et al. (2010); The printed length of 314 residues may differ from the length of the UniProt entry; also called membrane protein TehA; source: E. coli BL21(DE3) pLysS, purified (IMAC, size-exclusion chromatography); not shown: His tag, C-terminal, cleaved) MNITKPFPLPTGYFGIPLGLAALSLAWFHLENLFPAARMVSDVLGIVASAVWILFILMYAYKLRYYFEEVRAEYHSPVRFSFIALIPITTMLVGDILYRWNPLIAEVLIWIGTIGQLLFSTLRVSELWQGGVFEQKSTHPSFYLPAVAANFTSASSLALLGYHDLGYLFFGAGMIAWIIFEPVLLQHLRISSLEPQFRATMGIVLAPAFVCVSAYLSINHGEVDTLAKILWGYGFLQLFFLLRLFPWIVEKGLNIGLWAFSFGLASMANSATAFYHGNVLQGVSIFAFVFSNVMIGLLVLMTIYKLTKGQFFLK",stoichiometry N,3
